In the experiment the target is Ub-NpuN fusion protein bearing the wild-type N-intein sequence (NpuNWT), C1A (not stated | Nostoc punctiforme) (UniProt P0CG48). Description: other fluorescence titration.

As a reminder, the Kd is the concentration at which binding is half-saturated. Low readings indicate tighter binding, high ones weaker binding. “NpuC-SUMO fusion protein bearing the wild-type C-intein sequence (NpuCWT) (domain or fragment)” had a Kd of 2.9 nM. This lies in the single-digit nanomolar range.
